# Data as given in US20040009568A1, “Catalytic domains of the human hepatocyte growth factor receptor tyrosine kinase, and materials and methods for identification of inhibitors thereof” (priority 2001, published 2004).
# Molecular target: T1, phosphorylated HGFR (pHGFR) (Homo sapiens, UniProt P08581)
# T1 construct: The cDNA corresponding to residues 1051-1349 of the HGFR kinase catalytic domain (HGFRkd) was cloned into a pFastBac plasmid; added N-terminal methionine (start codon of the NcoI site) (N); made in house; host or cells: Sf9 insect cells, recombinant baculovirus; then autophosphorylated in vitro with MgATP
# T1 sequence (P08581 1051-1349): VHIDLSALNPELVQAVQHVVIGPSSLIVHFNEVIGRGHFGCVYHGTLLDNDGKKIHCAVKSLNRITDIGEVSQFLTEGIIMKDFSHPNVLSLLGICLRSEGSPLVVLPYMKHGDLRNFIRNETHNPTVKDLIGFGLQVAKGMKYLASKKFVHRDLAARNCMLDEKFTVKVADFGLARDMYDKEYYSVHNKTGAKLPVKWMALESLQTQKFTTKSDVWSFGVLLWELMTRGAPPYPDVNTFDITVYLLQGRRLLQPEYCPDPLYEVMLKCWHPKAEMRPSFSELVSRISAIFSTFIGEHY
# Assay: Coupled enzymatic (PK/LDH) kinase assay, phospho-HGFR
# Type: biochemical
# Conditions: coupled, enzymatic format; phosphorylation state of HGFR not stated; read-out: Km, Dephosphorylated α-casein
# Description: A coupled enzymatic assay format was used to measure both HGFR and phospho-HGFR(PHGFR) activities. The kinase-catalyzed production of ADP from ATP that accompanies phosphate transfer to the random copolymer poly(Glu4Tyr) or peptide substrate was coupled to the oxidation of NADH through the activities of pyruvate kinase (PK) and lactate dehydrogenase (LDH). NADH conversion to NAD^+ was monitored by the decrease in absorbance at 340 nm (ε=6.22 cm^−1 mM^−1) using a Beckman DU650 spectrophotometer. A typical reaction solution contained 1 mM phosphoenolpyruvate, 0.24 mM NADH, 40 mM MgCl2, 5 mM DTT, poly(Glu4Tyr), ATP, 15 units/mL PK, 15 units/mL LDH in 100 mM HEPES, pH 7.5. […]
# The kinetic consequences of the autophosphorylation were investigated. HGFR and pHGFR activities were evaluated in two distinct and complementing assay formats. […] NADH conversion to NAD^+ was monitored spectrophotometrically by the decrease in absorbance at 340 nm (ε=6.22 cm^−1 mM^−1). […]
# Inhibition of HGFR and pHGFR were monitored in two distinct assay formats to insure valid results. The coupled, enzymatic format (CE) was a continuous assay that measured ADP production through the sequential action of two standard coupling enzymes (pyruvate kinase and lactate dehydrogenase). The radioactive assay format was a discontinuous assay that measured phospho-protein production directly. […]
molecule,measurement,value
Dephosphorylated α-casein: phosphoacceptor protein substrate for HGFR (protein) RPKHPIKHQGLPQEVLNENLLRFFVAPFPEVFGKEKVNELSKDIGSESTEDQAMEDIKQMEAESISSSEEIVPNSVEQKHIQKEDVPSERYLGYLEQLLRLKKYKVPQLEIVPNSAEERLHSMKEGIHAQQKEPMIGVNQELAYFYPELFRQFYQLDAYPSGAWYYVPLGTQYTDAPSFSDIPNPIGSENSEKTTMPLW,Km,28.5 ± 3.5 µM
